System: CCCC(=O)Oc1ccc([N+](=O)[O-])cc1
Experiment: purified protein
Settings: 37 °C, semi-purified His-tagged enzyme, methods state optimal assay conditions (pH 7)

LipJ (Bacillus sp. (in: firmicutes)) gave a Km of 1700 µM.
